Assay results reported in US20240199745A1, “ANTI-EGFR ANTIBODY DRUG CONJUGATES” (priority 2016, published 2024).

What was measured:
[1] = biological target: human EGFR (huEGFR) over-expressed on mcl-1-/- mouse embryonic fibroblasts (human, UniProt P00533 25-1210); experiment: cell-based or functional assay
[2] = biological target: EGFR on EGFR positive non-small cell lung cancer cells NCI-H1650 (UniProt P00533 25-1210); experiment: cell-based or functional assay

| Binder | huEGFR+ mcl-1-/- MEF EC50 [1] | H1650 CTG-3D EC50 [2] | H1650 GFP Flourescence EC50 [2] |
| --- | --- | --- | --- |
| AbG-LB (antibody, human IgG1, kappa, V domains shown, synthon LB on reduced interchain cysteines; average DAR 2.5 per ADC) VH: EVQLQESGPGLVKPSQTLSLTCTVSGYSISNDFAWNWIRQLPGKGLEWMGYISYKGNTRYQPSLKSRITISRDTSKNQFFLKLNSVTAADTATYYCVTASRGLPYWGQGTLVTVSS VL: DIQMTQSPSSMSVSVGDRVTITCHSSQDITYNIGWLQQKPGKSFKGLIYHGANLDDGVPSRFSGSGSGTDYTLTISSLQPEDFATYYCVQYDEFPWTFGGGTKLEIKR | 24 nM | 1.68 µg/mL | 1.62 µg/mL |
| AbK-WD (antibody, human IgG1, kappa, V domains shown, synthon WD on reduced interchain cysteines; average DAR 1.7 per ADC) VH: EVQLQESGPGLVKPSQTLSLTCTVSGYSISRDFAWNWIRQPPGKGLEWMGYISYNGNTRYQPSLKSRITISRDTSKNQFFLKLNSVTAADTATYYCVTASRGFPWWGQGTLVTVSS VL: DIQMTQSPSSMSVSVGDRVTITCHSSQDITYNVGWLQQKPGKSFKGLIYHGSNLDHGVPSRFSGSGSGTDYTLTISSLQPEDFATYYCVQYDDFPWTFGGGTKLEIKR | 35 nM | 4.36 µg/mL | 2.57 µg/mL |
| AbK-LB (antibody, human IgG1, kappa, V domains shown, synthon LB on reduced interchain cysteines; average DAR 1.8 per ADC) VH: EVQLQESGPGLVKPSQTLSLTCTVSGYSISRDFAWNWIRQPPGKGLEWMGYISYNGNTRYQPSLKSRITISRDTSKNQFFLKLNSVTAADTATYYCVTASRGFPWWGQGTLVTVSS VL: DIQMTQSPSSMSVSVGDRVTITCHSSQDITYNVGWLQQKPGKSFKGLIYHGSNLDHGVPSRFSGSGSGTDYTLTISSLQPEDFATYYCVQYDDFPWTFGGGTKLEIKR | 17 nM | 1.23 µg/mL | 1.33 µg/mL |
| AbA-ZT (antibody, human IgG1, kappa, V domains shown, synthon ZT on reduced interchain cysteines; average DAR 2 per ADC) VH: EVQLQESGPGLVKPSQTLSLTCTVSGYSISRDFAWNWIRQPPGKGLEWMGYISYNGNTRYQPSLKSRITISRDTSKNQFFLKLNSVTAADTATYYCVTASRGFPYWGQGTLVTVSS VL: DIQMTQSPSSMSVSVGDRVTITCHSSQDINSNIGWLQQKPGKSFKGLIYHGTNLDDGVPSRFSGSGSGTDYTLTISSLQPEDFATYYCVQYAQFPWTFGGGTKLEIKR | 104 nM | 0.35 µg/mL | 1.13 µg/mL |
| AbA-ZZ (antibody, human IgG1, kappa, V domains shown, synthon ZZ on reduced interchain cysteines; average DAR 1.3 per ADC) VH: EVQLQESGPGLVKPSQTLSLTCTVSGYSISRDFAWNWIRQPPGKGLEWMGYISYNGNTRYQPSLKSRITISRDTSKNQFFLKLNSVTAADTATYYCVTASRGFPYWGQGTLVTVSS VL: DIQMTQSPSSMSVSVGDRVTITCHSSQDINSNIGWLQQKPGKSFKGLIYHGTNLDDGVPSRFSGSGSGTDYTLTISSLQPEDFATYYCVQYAQFPWTFGGGTKLEIKR | 186 nM | 1.86 µg/mL | 1.18 µg/mL |
